For three substances, ratio to parent and other: relative affinity (hCD4-M = 1) results are on record in paper PMC3270550.

This experiment has as its target HIV-1 envelope glycoprotein gp120 (UniProt P04578). Kind of experiment: binding assay (method not named in legend). The conditions noted are these: read off a plot; for other: relative affinity (hCD4-M = 1): parent: est. 0.63.

As for “hCD4-M, human CD4 mimetic peptide (residues 22-64), N-terminal Cys form F43A; R58A; R59A”, for the setting “parent: 1”, the ratio to parent was 0.24.
“mCD4-M, murine CD4 mimetic peptide (residues 22-66) I23C; E65C”: the other: relative affinity (hCD4-M = 1) was found to be 4.
The same measure, in the same setting: then “mCD4-M, murine CD4 mimetic peptide (residues 22-66) V44A; K60A; K61A”, with 0.14.
